Test results as given in PMC8256032, “Regulation of Dishevelled DEP domain swapping by conserved phosphorylation sites” (Proceedings of the National Academy of Sciences of the …, 2021).

Assays:
SNAP-FZD5 = SNAP-FZD5 (UniProt Q13467); experiment: SNAP-FZD5-dependent recruitment of DEP-GFP to the plasma membrane (cell scoring); conditions: n = 100 cells scored in each case, read off a plot; for other: % of cells with strong recruitment (category 'strong'): parent: est. 98
[1] = target: the molecule itself; experiment: SEC-MALS; unfractionated purified Lip-DEP_(402–510), Lip tag kept; Tris-buffered saline (30 mM Tris, 300 mM NaCl, NaN3 0.03%, pH 7.4), Superdex S-200 10/300
[2] = target: the molecule itself; experiment: SEC-MALS; cleaved DEP monomer incubated with urea (0 to 5 M for wt; 3 M for the mutants) for 8 h at 25 °C, then SEC-MALS in Tris-buffered saline (30 mM Tris, 300 mM NaCl, pH 7.4); monomer to domain-swapped dimer

SNAP-FZD5, sequence (Q13467 27-585): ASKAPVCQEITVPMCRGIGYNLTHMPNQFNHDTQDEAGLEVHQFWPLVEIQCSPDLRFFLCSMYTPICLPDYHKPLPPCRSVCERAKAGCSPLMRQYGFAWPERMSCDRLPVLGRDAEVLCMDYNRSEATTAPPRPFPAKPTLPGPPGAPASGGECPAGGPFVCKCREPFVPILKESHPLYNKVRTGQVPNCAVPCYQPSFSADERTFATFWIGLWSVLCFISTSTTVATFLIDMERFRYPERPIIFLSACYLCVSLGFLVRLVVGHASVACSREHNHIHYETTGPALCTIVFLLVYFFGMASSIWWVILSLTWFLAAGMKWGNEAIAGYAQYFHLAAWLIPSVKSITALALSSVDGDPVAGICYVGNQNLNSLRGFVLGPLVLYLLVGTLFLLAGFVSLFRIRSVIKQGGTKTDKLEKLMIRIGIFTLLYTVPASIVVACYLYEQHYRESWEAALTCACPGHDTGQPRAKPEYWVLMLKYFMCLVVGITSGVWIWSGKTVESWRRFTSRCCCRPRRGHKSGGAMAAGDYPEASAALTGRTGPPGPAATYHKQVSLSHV

Row | Molecule | other: % of cells with strong recruitment (category 'strong') (SNAP-FZD5) | binding result [1] | also measured
1 | DEP tagged with GFP (DEP-GFP), wild type (from UniProt O14641) S435E | 99 % of cells | – | –
2 | DEP tagged with GFP (DEP-GFP), wild type (from UniProt O14641) L445E | – | – | other: % of cells with no recruitment (category 'none') (SNAP-FZD5): 94 % of cells
3 | DEP tagged with GFP (DEP-GFP), wild type (from UniProt O14641) S418E | 100 % of cells | – | –
4 | DEP tagged with GFP (DEP-GFP), wild type (from UniProt O14641) S435A | 97 % of cells | – | –
5 | DEP tagged with GFP (DEP-GFP), wild type (from UniProt O14641) S418A | 98 % of cells | – | –
6 | Lipoyl-tagged DEP (Lip-DEP_(402–510)), wild type (domain or fragment, human, UniProt O14641 402-510, looked up, also called Lip-DEP402 to 510; source: E. coli BL21-CodonPlus(DE3)-RIL, purified (NiNTA, SEC)) ITSGSSLPDGCEGRGLSVHTDMASVTKAMAAPESGLEVRDRMWLKITIPNAFLGSDVVDWLYHHVEGFPERREARKYASGLLKAGLIRHTVNKITFSEQCYYVFGDLSG | – | – | stoichiometry N [1]: 2
7 | cleaved wt DEP monomer (Lip tag removed) (domain or fragment, human, UniProt O14641 402-510, looked up, also called monomeric DEP; source: E. coli BL21-CodonPlus(DE3)-RIL, purified (NiNTA, SEC), Lip tag removed by tobacco etch virus protease) ITSGSSLPDGCEGRGLSVHTDMASVTKAMAAPESGLEVRDRMWLKITIPNAFLGSDVVDWLYHHVEGFPERREARKYASGLLKAGLIRHTVNKITFSEQCYYVFGDLSG | – | – | stoichiometry N [2]: 2
8 | Lip-DEP_(402–510) S418A (domain or fragment, human, UniProt O14641 402-510, looked up, source: E. coli BL21-CodonPlus(DE3)-RIL, purified (NiNTA, SEC)) ITSGSSLPDGCEGRGLAVHTDMASVTKAMAAPESGLEVRDRMWLKITIPNAFLGSDVVDWLYHHVEGFPERREARKYASGLLKAGLIRHTVNKITFSEQCYYVFGDLSG | – | binds | –
9 | Lip-DEP_(402–510) S435A (domain or fragment, human, UniProt O14641 402-510, looked up, source: E. coli BL21-CodonPlus(DE3)-RIL, purified (NiNTA, SEC)) ITSGSSLPDGCEGRGLSVHTDMASVTKAMAAPEAGLEVRDRMWLKITIPNAFLGSDVVDWLYHHVEGFPERREARKYASGLLKAGLIRHTVNKITFSEQCYYVFGDLSG | – | binds | –
10 | Lip-DEP_(402–510) S435E (domain or fragment, human, UniProt O14641 402-510, looked up, source: E. coli BL21-CodonPlus(DE3)-RIL, purified (NiNTA, SEC)) ITSGSSLPDGCEGRGLSVHTDMASVTKAMAAPEEGLEVRDRMWLKITIPNAFLGSDVVDWLYHHVEGFPERREARKYASGLLKAGLIRHTVNKITFSEQCYYVFGDLSG | – | binds | –
11 | Lip-DEP_(402–510) S418E (domain or fragment, human, UniProt O14641 402-510, looked up, source: E. coli BL21-CodonPlus(DE3)-RIL, purified (NiNTA, SEC)) ITSGSSLPDGCEGRGLEVHTDMASVTKAMAAPESGLEVRDRMWLKITIPNAFLGSDVVDWLYHHVEGFPERREARKYASGLLKAGLIRHTVNKITFSEQCYYVFGDLSG | – | binds | –
